The experiment addresses T1, HLA-DRB1*11:01 (human, UniProt P01911 30-227; P01903 26-216).
T1 construct: whole, on cells; Class II molecule on irradiated, partially HLA-matched PHA-blasts; Only the DRB1 allele is printed; also called HLA-DR11
Briefly: restriction testing: IFN-γ ELISpot of CSTs with partially HLA-matched PHA-blasts pulsed with peptide (indirect read-out).

Turning to LRGHLRIAGHHLGRC (also called LRGHLRIAGHHLGRC) [Membrane peptide 37 (AA 145-160)], the binding result is “binds”.

Source of the values: patent US20220160767A1 (CHILDREN S NATIONAL MEDICAL CENTER, published 2022).
